The record followed here is IntAct's records for PubMed 35107372.

The labels stand for the following.
B1: Nucleolar RNA helicase 2 (Homo sapiens), Q9NR30 (parent)
chain: MPGKLRSDAGLESDTAMKKGETLRKQTEEKEKKEKPKSDKTEEIAEEEETVFPKAKQVKKKAEPSEVDMNSPKSKKAKKKEEPSQNDISPKTKSLRKKKEPIEKKVVSSKTKKVTKNEEPSEEEIDAPKPKKMKKEKEMNGETREKSPKLKNGFPHPEPDCNPSEAASEESNSEIEQEIPVEQKEGAFSNFPISEETIKLLKGRGVTFLFPIQAKTFHHVYSGKDLIAQARTGTGKTFSFAIPLIEKLHGELQDRKRGRAPQVLVLAPTRELANQVSKDFSDITKKLSVACFYGGTPYGGQFERMRNGIDILVGTPGRIKDHIQNGKLDLTKLKHVVLDEVDQMLDMGFADQVEEILSVAYKKDSEDNPQTLLFSATCPHWVFNVAKKYMKSTYEQVDLIGKKTQKTAITVEHLAIKCHWTQRAAVIGDVIRVYSGHQGRTIIFCETKKEAQELSQNSAIKQDAQSLHGDIPQKQREITLKGFRNGSFGVLVATNVAARGLDIPEVDLVIQSSPPKDVESYIHRSGRTGRAGRTGVCICFYQHKEEYQLVQVEQKAGIKFKRIGVPSATEIIKASSKDAIRLLDSVPPTAISHFKQSAEKLIEEKGAVEALAAALAHISGATSVDQRSLINSNVGFVTMILQCSIEMPNISYAWKELKEQLGEEIDSKVKGMVFLKGKLGVCFDVPTASVTEIQEKWHDSRRWQLSVATEQPELEGPREGYGGFRGQREGSRGFRGQRDGNRRFRGQREGSRGPRGQRSGGGNKSNRSQNKGQKRSFSKAFGQ

The variants in the experiment derive from B1. The note with it: with ncap_sars2 N.
Regarding S375L;A376E, the “effect of a mutation on the interaction” value is “with no effect”.

In the case of D339H;E340G, the “effect of a mutation on the interaction” value was “with no effect”.
